Results on four molecules are retold here after patent US20230322924A1 (Janssen / Centocor, published 2023).

The Kd is the equilibrium constant for the complex coming apart. As a reminder, the koff is the rate constant with which the complex falls apart. Low values mean slow dissociation, high ones fast dissociation. What is called kon is the rate constant with which the complex forms. High values mean fast association, low ones slow association.

The target of experiment [1] is T1, TMEW19 (spTMEFF2(230-320)G3S-H6) (human, UniProt Q9UIK5 230-320).
T1 construct: Residues 230-320 of human TMEFF2 with G3S and 6xHis tag, all in the entry; also called TMEFF2 membrane proximal region; MP
T1 sequence: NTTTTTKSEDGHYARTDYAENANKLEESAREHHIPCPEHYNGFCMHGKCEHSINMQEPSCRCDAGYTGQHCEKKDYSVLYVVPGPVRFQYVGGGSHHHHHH
The experiment in a line: ProteOn SPR, mAb captured on anti-human Fc, TMEFF2 as analyte. On the procedure: (§1) The binding of anti-TMEFF2 mAbs to the ECD and the membrane proximal region of human TMEFF2 was measured by ProteOn SPR (Bio-Rad). The purified mAbs (diluted to a final concentration of 1 μg/ml in PBST) were used as ligands in the assay and were immobilized through Fc capture to Goat Anti-Human (GAH) IgG Fc. For amine coupling of the GAH IgG Fc, a 1:1 mixture of EDC (40 mM) and NHS (10 mM) were mixed immediately prior to injection to activate the chip surface and injected in the vertical orientation. GAH-Fc (at 30 μg/ml) antibody in acetate buffer (pH 5.0) was then flowed over the surface for 300 seconds at 30 μl/min in the vertical orientation. Any remaining reactive carboxyl groups in the surface were subsequently deactivated by injecting 1M Ethanolamine (pH 8.5) in the same orientation. The antibodies were used at a concentration of 1 μg/ml for immobilization. The antibodies were flowed over the surface in the horizontal direction. Human TMEFF2 ECD or the membrane proximal region in 3-fold dilution series of 5 concentrations (highest concentration ranging from 100-600 nM) was flowed in as analyte in the vertical orientation to bind to the captured molecules. A buffer sample was also injected in the 6th channel in the vertical direction to monitor any drift in the baseline signal. The association and dissociation phases for all concentrations were monitored over 3 minutes and 30 (or 15) minutes respectively, at a flow rate of 100 μL/min. The binding surface was regenerated for the next interaction cycle using an 18 second pulse of 0.8% phosphoric acid to remove the bound antigen. The raw data were processed by subtracting two sets of reference data from the response data: 1) the inter-spot signals to correct for the non-specific interactions between the antigen and the empty chip surface; 2) the empty channel signals (where only PBST was flowed over the chip) to correct for non-specific baseline drift.

For experiment [2], the target named is T2, TMEW1 (TMEFF2-FL-ECD-His-Avitag) (human, UniProt Q9UIK5 41-320).
T2 construct: Human TMEFF2 ECD with C-terminal G3S, 6xHis tag and Avi-tag, all in the entry; also called TMEFF2 ECD
T2 sequence: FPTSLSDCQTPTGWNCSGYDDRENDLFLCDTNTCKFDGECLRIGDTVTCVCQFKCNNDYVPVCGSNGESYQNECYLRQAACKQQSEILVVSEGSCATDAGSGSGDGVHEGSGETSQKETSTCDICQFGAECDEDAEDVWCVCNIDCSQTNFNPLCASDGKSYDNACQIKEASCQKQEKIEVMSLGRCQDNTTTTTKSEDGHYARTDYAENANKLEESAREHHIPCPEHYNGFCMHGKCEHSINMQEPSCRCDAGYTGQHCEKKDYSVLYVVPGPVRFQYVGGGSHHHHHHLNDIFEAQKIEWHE
Described as above. On the procedure: as §1

B1: TMEB674 (antibody, human IgG4 S228P, kappa, F234A L235A, V domains shown)
VH: VQLLESGGGLVQPPGGSLRLSCAASGFTFSSYSMSWVRQAPGKGLEWVSVISGGGSFTSYADSVKGRFTISRDNSNNTLYLQMSSLRAEDTAFYYCARMPLNSPHDCWGQGTLVTVSS
VL: AIQMTQSPSSLSASVGDRVTITCRASQGIRNDLGWYQQKPGKAPKLLIYAASSLQSGVPSRFSGSGSGTDFTLTISSLQPEDFATYYCLQDYNYSLTFGGGTKVEIRR
notes: IgG4 PAA anti-TMEFF2; also called TMEH410/TMEL126
For B1, in experiment [1], the affinity, expressed as Kd, was 200 pM; the koff was 0.000175 s⁻¹; the kon stood at 837000 M⁻¹ s⁻¹. Also, in experiment [2], the Kd worked out at 100 pM, the off-rate (koff) turned out to be 0.000162 s⁻¹ and the association rate constant (kon) turned out to be 2.01e+06 M⁻¹ s⁻¹.

B2: TMEB675 (antibody, human IgG4 S228P, kappa, F234A L235A, V domains shown)
VH: EVQLLESGGGLVQRGGSLRPSCAASGFTFSSYSMSWVRQAPGKGLEWVSVISGSGGFTDYADSVKGRFTISRDNSKNTLYLHMNSLRAEDTAVYYCARMPLNSPHDYWGQGTLVTVSS
VL: AIQMTQSPSSLSASVGDRVTITCRASQGIRNDLGWYQQKPGKAPKLLIYAASSLQSGVPSRFSGSGSGTDFTLTISSLQPEDFATYYCLQDYNYALTFGGGTKVEIKR
notes: IgG4 PAA anti-TMEFF2; also called TMEH411/TMEL127
With B2, in experiment [1], binding was put at a Kd of 200 pM, the off-rate (koff) was found to be 0.000158 s⁻¹ and the kon was 972000 M⁻¹ s⁻¹. In experiment [2], this molecule gave a Kd of 100 pM, a koff of 0.000153 s⁻¹ and a kon of 2.65e+06 M⁻¹ s⁻¹.

B3: TMEB565 (antibody, human IgG4 S228P, kappa, F234A L235A, V domains shown)
VH: QVQLVQSGAEVKKPGSSVKVSCKASGGTFSSYYISWVRQAPGQGLEWMGGIIPISGRANYAQKFQGRVTITADESTSTAYMELSSLRSEDTAVYYCARDGYSSGRSTTYAFDYWGQGTLVTVSS
VL: EIVLTQSPGTLSLSPGERATLSCRASQSVATYYLAWYQQKPGQAPRLLIYGASSRATGIPDRFSGSGSGTDFTLTISRLEPEDFAVYYCQQYGYNPITFGQGTKVEIKR
notes: IgG4 PAA anti-TMEFF2; also called TMEH396/TMEL111
Turning to B3, in experiment [1], the affinity, expressed as Kd, was 10 pM; the off-rate (koff) turned out to be 6.39e-06 s⁻¹; the kon was found to be 777000 M⁻¹ s⁻¹. Also, in experiment [2], the affinity, expressed as Kd, was 20 pM; the koff is 9.13e-06 s⁻¹; the kon worked out at 384000 M⁻¹ s⁻¹.

B4: TMEB570 (antibody, human IgG4 S228P, kappa, F234A L235A, V domains shown)
VH: QVQLVQSGAEVKKPGSSVKVSCKASGGTFSSYYISWVRQAPGQGLEWMGGIIPISGRANYAQKFQGRVTITADESTSTAYMELSSLRSEDTAVYYCARDGYSSGRSTTYAFDYWGQGTLVTVSS
VL: EIVLTQSPGTLSLSPGERATLSCRASQSVSTYYLAWYQQKPGQAPRLLIYGASYRATGIPDRFSGSGSGTDFTLTISRLEPEDFAVYYCQQYGHSPITFGQGTKVEIKR
notes: IgG4 PAA anti-TMEFF2; also called TMEH396/TMEL112
In experiment [1], B4 registered a Kd of 60 pM, a koff of 4.67e-05 s⁻¹ and a kon of 762000 M⁻¹ s⁻¹. In experiment [2], this molecule showed a Kd of 110 pM, a koff of 5.13e-05 s⁻¹ and a kon of 464000 M⁻¹ s⁻¹.
